PMC6128628, “Impaired hepatic amyloid-beta degradation in Alzheimer’s disease” (PLoS ONE, 2018)

Experiment: Degradation of fluorescein-labeled Aβ spiked into human liver homogenates (ELISA)
Type: in vitro ADME
Details: fluorescein-labeled peptide from DMSO stock diluted to 0.4 μg/ml, 5 μl added, 37°C, stopped on ice with protease inhibitor cocktail
Experimental: Frozen liver (~500 mg) was ground into a powder in liquid nitrogen with a mortar and pestle then transferred to 8 ml sucrose lysis buffer (SLB: 20 mM HEPES, 1.5 mM magnesium chloride, 10 mM potassium chloride, 40 mM sucrose, 1 mM EDTA, 2% glycerol, 0.5% sodium deoxycholate, 1% Tergitol, pH 7.9) at 4°C. The tissue was then homogenized using an Omni TH tissue grinder (Kennesaw, GA) at 4°C. The homogenates were centrifuged at 15,000 x g in a Type 50.4 Ti rotor (Beckman Coulter, Brea, CA) for 20 min at 4°C and the supernatant was collected. Total protein was determined with Pierce’s Micro BCA protein assay kit (Thermo Fisher Scientific, Waltham, MA).
Lyophilized fluorescein-labeled Aβ40 and Aβ42 peptides (FAβ, rPeptide, Bogart, GA) were reconstituted in DMSO to 1 mg/ml and stored at 4°C [22]. For degradation experiments, the stock peptides were diluted to 0.4 μg/ml (1:2500) in sucrose lysis buffer (SLB), 5 μl of either FAβ40 or FAβ42 was added to the reaction mixtures and samples were incubated at 37°C for 1 h or 2 h (for ELISA and Western experiments). In addition, two 0 h incubations were included: one liver homogenate with 5 μl of FAβ as well as a negative control sample without FAβ. Reactions were terminated by placing homogenates on ice and by adding SLB with complete protease inhibitor cocktail (PIC, Roche, Mannheim, Germany). Reactions used for Western blots were stopped by 2XLDS sample buffer (Invitrogen) containing 100 mM dithiothreitol.
All 4 sample sets were analyzed in triplicate with Aβ40 and Aβ42 ELISAs (Invitrogen; catalog # KHB3481 and KHB3441 following the manufacturer’s instructions. Similar sets of samples were analyzed for FAβ by Western blot (as described below) with an anti-fluorescein antibody (Table 2) which binds to both to both free and bound fluorescein.

Substance | Aβ degraded within 2 hours, AD group (postmortem human liver homogenate from Alzheimer's disease subjects (n = 8) in sucrose lysis buffer pH 7.9, 2 h, Aβ42 ELISA in triplicate, p = 0.07 vs ND) | Aβ degraded within 2 hours, ND homogenates (postmortem human liver homogenate from non-demented controls (n = 8) in sucrose lysis buffer pH 7.9, 2 h, Aβ42 ELISA in triplicate, p = 0.07 vs AD) | Aβ degraded within an hour, AD group (postmortem human liver homogenate from Alzheimer's disease subjects (n = 8) in sucrose lysis buffer pH 7.9, 1 h, Aβ40 ELISA in triplicate, p<0.05 vs ND) | Aβ degraded within an hour, ND group (postmortem human liver homogenate from non-demented controls (n = 8) in sucrose lysis buffer pH 7.9, 1 h, Aβ40 ELISA in triplicate, p<0.05 vs AD)
Aβ42: synthetic fluorescein-labeled amyloid beta 42 peptide (rPeptide), spiked into liver homogenates | 80% | 94% |  | 
Aβ40: synthetic fluorescein-labeled amyloid beta 40 peptide (rPeptide), spiked into liver homogenates |  |  | 23% | Thirty-four
